Assay results: patent US20230287457

Tested on: Nla type I-C Cascade + Cas3 expressed in E. coli (Neisseria lactamica)
Assay: cell_activity
Settings: PAM 5'-TTC; E. coli plasmid interference

native CRISPR spacer 1 crRNA ; spacer 1 target with 5'-TTC PAM
activity (fold reduction in colony count): 1000
